Data set [1] deals with T1, TNKS1 ARC subdomains 1–3 (ARC1–3, residues 178–645) (human, UniProt O95271 178-645).
T1 construct: human Tankyrase 1, ankyrin repeat clusters 1-3, residues 178-645; Cloned into pETM11 with NcoI and XhoI; also called TNKS1 ARC1–3
T1 sequence (looked up): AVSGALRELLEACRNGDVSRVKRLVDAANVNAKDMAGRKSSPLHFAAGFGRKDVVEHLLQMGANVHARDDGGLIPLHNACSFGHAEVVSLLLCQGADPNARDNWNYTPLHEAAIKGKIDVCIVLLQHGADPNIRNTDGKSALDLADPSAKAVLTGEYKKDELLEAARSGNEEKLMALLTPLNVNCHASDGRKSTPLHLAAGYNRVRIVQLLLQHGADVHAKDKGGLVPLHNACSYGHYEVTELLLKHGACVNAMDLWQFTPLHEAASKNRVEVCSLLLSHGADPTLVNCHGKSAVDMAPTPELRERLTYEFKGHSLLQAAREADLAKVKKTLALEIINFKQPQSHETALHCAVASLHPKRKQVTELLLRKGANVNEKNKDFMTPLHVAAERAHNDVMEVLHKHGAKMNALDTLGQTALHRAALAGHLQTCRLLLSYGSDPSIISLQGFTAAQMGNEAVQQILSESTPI
Description: fluorescence polarisation; 50 nM 5-FAM-Ahx peptide with varied ARC1–3 protein; 25 mM HEPES pH 8, 150 mM NaCl, 1 mM TCEP, 5% glycerol, 0.05% CHAPS; room temperature, 60 min; one-site total binding model. Particulars: both partners purified.

Data set [2] addresses T2, TNKS1 ARC subdomains 1–3 (ARC1–3, residues 178–645) (human, UniProt O95271 178-645).
T2 chain: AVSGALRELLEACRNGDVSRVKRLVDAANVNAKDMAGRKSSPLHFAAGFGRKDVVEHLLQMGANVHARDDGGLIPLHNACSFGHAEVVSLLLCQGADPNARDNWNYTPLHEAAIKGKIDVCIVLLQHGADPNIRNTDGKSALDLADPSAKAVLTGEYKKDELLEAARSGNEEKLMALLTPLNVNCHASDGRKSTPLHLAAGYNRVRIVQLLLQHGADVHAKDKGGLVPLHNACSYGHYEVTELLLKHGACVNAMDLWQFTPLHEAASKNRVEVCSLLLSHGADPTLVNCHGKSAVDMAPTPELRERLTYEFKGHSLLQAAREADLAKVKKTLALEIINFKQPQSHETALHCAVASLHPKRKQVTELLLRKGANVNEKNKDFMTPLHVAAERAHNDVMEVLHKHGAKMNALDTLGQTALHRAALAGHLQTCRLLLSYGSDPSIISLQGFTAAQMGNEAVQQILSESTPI
The data set is described as follows: FP.

Data set [3] concerns the molecule itself. The data set is described as follows: SEC; HiLoad Superdex S75 16/600; 20 mM HEPES pH 7.4, 200 mM NaCl, 5% glycerol, 0.1 mM TCEP; elution compared with standard proteins (estimated native MW 24.6 kDa, predicted 12.5 kDa).

The values that follow come from paper PMC7070046, “Sjögren syndrome/scleroderma autoantigen 1 is a direct Tankyrase binding partner in cancer cells” (Communications Biology, 2020).

Where no end group is shown, it is not given here.

B1: SSSCA1-H2 peptide (TSLETSIQLCGLIRACAEALRSLQQL) (peptide)
peptide: TSLETSIQLCGLIRACAEALRSLQQL
modifications: cysteine pairing not given here; also: 5-FAM-Ahx conjugate, position not given here
notes: human SSSCA1, helix H2 region; source: synthetic peptide (bought: GenScript)
Regarding B1, the binding result in data set [1] is “binds”.

B2: Axin1 positive control peptide (EDAPRPPVPGEEG) (peptide)
peptide: EDAPRPPVPGEEG
modifications: not fully specified (N-terminus); also: 5-FAM-Ahx-conjugated
notes: source: synthetic peptide (bought: GenScript)
For orientation: Kd means a measure of binding affinity in units of concentration. Regarding B2, in data set [1], the binding result was “binds”. The molecule further showed a Kd in data set [2] of 460 nM.

B3: SSSCA1 N-terminal Auto_anti-p27 domain (M1-S111) (domain or fragment, human, UniProt O60232 1-111, looked up)
chain: MALNGAEVDDFSWEPPTEAETKVLQARRERQDRISRLMGDYLLRGYRMLGETCADCGTILLQDKQRKIYCVACQELDSDVDKDNPALNAQAALSQAREHQLASASELPLGS
notes: Residues 1-12 and 78-111 are not modelled in the crystal structure; also called N-terminal SSSCA1; hSSSCA1; not shown: His6, N-terminal, cleaved
Usually stoichiometry N stands for the number of molecules, sites or subunits per partner or assembly. Consider B3, for which, in data set [3], the “stoichiometry N” value was 2.

B4: SSSCA1-H1 peptide (DVMACTQTALLQKLTWASAELGSS) (peptide)
peptide: DVMACTQTALLQKLTWASAELGSS
modifications: not fully specified (N-terminus); also: 5-FAM-Ahx-conjugated
notes: human SSSCA1, helix H1 region; source: synthetic peptide (bought: GenScript)
For B4, the binding result in data set [1] was “binds”. For the same molecule, the Kd in data set [2] was determined as 460 nM.

B5: SSSCA1-H2 peptide (TSLETSIQLCGLIRACAEALRSLQQL) (peptide)
peptide: TSLETSIQLCGLIRACAEALRSLQQL
modifications: not fully specified (N-terminus); cysteine pairing not given here; also: 5-FAM-Ahx-conjugated
Regarding B5, binding in data set [2] was put at a Kd of 60 nM.
